Source: patent US20230083243A1 (VEGA THERAPEUTICS, published 2023)

Columns and labels:
[1] = molecular target: T1, human Protein S (human, UniProt P07225 42-676); test: ELISA; plate coated with human Protein S; 1 µg/ml antibody; 1 mM calcium chloride
T1 construct: also called ProS; ProS1
T1 sequence: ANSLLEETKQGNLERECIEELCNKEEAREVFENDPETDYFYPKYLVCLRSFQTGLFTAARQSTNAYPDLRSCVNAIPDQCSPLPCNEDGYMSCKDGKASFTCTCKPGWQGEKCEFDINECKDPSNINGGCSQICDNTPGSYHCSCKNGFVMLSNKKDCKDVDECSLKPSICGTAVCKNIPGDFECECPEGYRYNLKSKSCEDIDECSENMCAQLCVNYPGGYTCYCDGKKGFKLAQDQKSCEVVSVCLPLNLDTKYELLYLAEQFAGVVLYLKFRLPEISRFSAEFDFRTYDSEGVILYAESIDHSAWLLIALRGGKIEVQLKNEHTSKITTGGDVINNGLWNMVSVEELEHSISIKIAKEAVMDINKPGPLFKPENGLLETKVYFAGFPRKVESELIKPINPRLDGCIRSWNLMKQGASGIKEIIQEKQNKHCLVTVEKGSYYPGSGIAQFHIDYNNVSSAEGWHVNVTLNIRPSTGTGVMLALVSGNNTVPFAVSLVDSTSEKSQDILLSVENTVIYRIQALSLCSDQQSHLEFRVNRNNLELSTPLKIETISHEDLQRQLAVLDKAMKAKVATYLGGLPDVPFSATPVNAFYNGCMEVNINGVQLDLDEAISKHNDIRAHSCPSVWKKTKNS
Description: (§1) Calcium dependence of binding was determined using an ELISA based method. Briefly, high binding ELISA plates were coated with human Protein S. Then, buffer containing 1 μg/ml of antibody was applied to the well with either buffer containing 1 mM EDTA or 1 mM calcium chloride.

[2] = molecular target: T1, human Protein S; test: cell-based or functional assay
[3] = molecular target: T2, recombinant heavy chain Protein S (human, UniProt P07225 42-296); test: ELISA on recombinant Protein S heavy chain
T2 construct: Fragment of Protein S spanning amino acids 42-296, expressed and purified from HEK293 cells; also called Protein S heavy chain; heavy chain of Protein S
T2 sequence: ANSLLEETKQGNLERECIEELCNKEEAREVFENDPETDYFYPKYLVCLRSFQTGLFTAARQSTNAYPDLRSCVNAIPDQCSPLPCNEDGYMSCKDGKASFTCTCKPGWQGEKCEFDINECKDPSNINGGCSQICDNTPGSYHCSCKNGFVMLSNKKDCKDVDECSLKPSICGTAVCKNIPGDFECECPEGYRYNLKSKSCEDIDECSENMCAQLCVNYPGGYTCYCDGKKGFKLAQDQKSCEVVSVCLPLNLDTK
Description: (§2) Binding to the heavy chain of Protein S was determined using an ELISA based method. Briefly, high binding ELISA plates were coated with recombinant heavy chain Protein S expressed and purified from HEK293 cells. The “heavy chain” of Protein S represents a fragment of Protein S spanning amino acids 42-296. The coated plate was blocked with 1% casein solution. Then, buffer containing […] of antibody was applied to the well with buffer containing 1 mM calcium chloride.

[4] = molecular target: T2, recombinant heavy chain Protein S; test: ELISA; plate coated with recombinant Protein S heavy chain; 1 mM CaCl2
Description: as §2

[5] = molecular target: T1, human Protein S; test: ELISA; plate coated with human Protein S; 1 µg/ml antibody; 1 mM EDTA
Description: as §1

[6] = molecular target: T3, Protein S-C4BP complex (human, UniProt P04003 49-597; P20851 18-252); test: BLI Octet; antibody on anti-human Fc probe
T3 construct: C4BP preparation from Complement Technologies that contains Protein S precomplexed to human C4BP; also called ProS-C4BP Complex; C4BP-Protein S complex
T3 sequence 1: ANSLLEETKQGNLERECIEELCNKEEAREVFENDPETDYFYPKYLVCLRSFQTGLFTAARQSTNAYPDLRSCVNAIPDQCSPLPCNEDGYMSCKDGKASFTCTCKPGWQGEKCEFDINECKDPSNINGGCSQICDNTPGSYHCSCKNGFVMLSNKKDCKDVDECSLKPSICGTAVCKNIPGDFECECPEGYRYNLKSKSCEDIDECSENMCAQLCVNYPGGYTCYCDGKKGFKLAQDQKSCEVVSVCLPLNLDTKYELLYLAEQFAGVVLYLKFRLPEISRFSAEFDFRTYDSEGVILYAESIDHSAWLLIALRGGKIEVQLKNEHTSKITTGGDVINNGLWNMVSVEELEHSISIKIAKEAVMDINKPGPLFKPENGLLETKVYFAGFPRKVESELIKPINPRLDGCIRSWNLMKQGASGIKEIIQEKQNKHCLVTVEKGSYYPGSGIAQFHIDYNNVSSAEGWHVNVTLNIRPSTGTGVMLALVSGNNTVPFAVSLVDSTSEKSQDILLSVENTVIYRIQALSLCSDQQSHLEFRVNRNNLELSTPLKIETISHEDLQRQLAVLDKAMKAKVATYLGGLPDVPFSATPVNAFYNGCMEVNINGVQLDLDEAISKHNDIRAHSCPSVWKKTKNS
T3 sequence 2: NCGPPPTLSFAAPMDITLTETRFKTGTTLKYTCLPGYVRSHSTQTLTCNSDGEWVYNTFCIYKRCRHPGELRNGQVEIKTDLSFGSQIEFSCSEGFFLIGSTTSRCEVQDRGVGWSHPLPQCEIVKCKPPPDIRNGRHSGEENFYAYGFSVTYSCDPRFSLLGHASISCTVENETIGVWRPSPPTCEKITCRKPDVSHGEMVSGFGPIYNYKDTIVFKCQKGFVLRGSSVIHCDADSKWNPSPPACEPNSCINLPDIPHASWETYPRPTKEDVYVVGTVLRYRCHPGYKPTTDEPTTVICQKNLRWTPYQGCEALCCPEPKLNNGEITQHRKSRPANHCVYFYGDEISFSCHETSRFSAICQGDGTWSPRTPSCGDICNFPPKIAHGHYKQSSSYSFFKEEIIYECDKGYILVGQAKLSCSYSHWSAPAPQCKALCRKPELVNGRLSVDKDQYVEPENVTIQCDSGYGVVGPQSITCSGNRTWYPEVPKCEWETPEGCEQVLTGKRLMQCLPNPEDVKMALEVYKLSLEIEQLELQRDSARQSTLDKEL
T3 sequence 3: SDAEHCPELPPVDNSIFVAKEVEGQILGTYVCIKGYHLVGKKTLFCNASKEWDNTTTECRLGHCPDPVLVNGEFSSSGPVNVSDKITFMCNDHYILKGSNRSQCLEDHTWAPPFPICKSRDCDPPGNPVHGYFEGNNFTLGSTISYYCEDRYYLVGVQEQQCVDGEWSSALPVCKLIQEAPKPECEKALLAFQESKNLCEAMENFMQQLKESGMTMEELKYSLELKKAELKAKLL
Description: The Octet assay was used to determine the capability of the Protein S antibodies provided herein to bind to Protein S either alone, or when complexed to C4BP.
Using the Octet System (Sartorius), the binding of each antibody to both Protein S and Protein S in complex with C4BP was determined. It had previously been determined that the C4BP preparation from Complement Technologies contains Protein S precomplexed to human C4BP. Therefore, this preparation represented the Protein S-C4BP complex and plasma purified Protein S from Haematologic Technologies was used as the source of free Protein S. The human Fc antibodies were immobilized onto anti-human Fc capture probes by placing the probes into 10 μg/ml antibody solution in 10 mg/ml bovine serum albumin, 20 mM Tris pH 7.0, 150 mM NaCl, and 4 mM calcium chloride. Then the bound antibodies were placed into solutions containing either 75 μg/ml Protein S or 100 μg/ml C4BP (C4BP-Protein S complex).

[7] = molecular target: T1, human Protein S; test: BLI Octet; antibody on anti-human Fc probe; Protein S 7.81-500 nM; 4 mM CaCl2
Description: (§3) Binding characteristics of the Protein S antibodies were also further characterized using Octet. Using the Octet System (Sartorius), the binding of each antibody to both human and cynomolgus monkey (“cyno” in Table 10) Protein S was determined. The human Fc antibodies were immobilized onto anti-human Fc capture probes by placing the probes into 10 μg/ml antibody solution in 10 mg/ml bovine serum albumin, 20 mM Tris pH 7.0, 150 mM NaCl, and 4 mM calcium chloride. […] Next, the probes were placed into buffer and the dissociation rates were measured.

[8] = molecular target: T4, cynomolgus monkey Protein S (cynomolgus monkey); test: as above
T4 construct: also called cyno Protein S
Description: as §3

B1: Antibody 38 (antibody, V domains shown)
VH: EVQLVESGGGLVKPGGSLRLSCAASGISFSNAWMSWVRQAPGKGLEWVGRIKANPDGGTTDYAAPVKGRFTISRDDSKNTLYLQMNSLKTEDTAVYYCTTELDILLWFTSFDYWGQGTLVTVSS
VL: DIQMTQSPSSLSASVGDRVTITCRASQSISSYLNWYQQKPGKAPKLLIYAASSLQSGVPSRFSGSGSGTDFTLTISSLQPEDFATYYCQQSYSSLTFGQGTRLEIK
notes: Human variable region with rat Fc
Binding to Protein S in CaCl2 (OD) [1]: 1.38 OD
IC50 APC [2]: 84 nM
binding result [3]: no binding
Binding to heavy chain (OD) [4]: 0.1 OD
Binding to Protein S in EDTA (OD) [5]: 0.09 OD

B2: Antibody 37 (antibody, V domains shown)
VH: EVQLVESGGGLVKPGGSLRLSCAASGISFSNAWMSWVRQAPGKGLEWVGRIKANPDGGTTDYAAPVKGRFTISRDDSKNTLYLQMNSLKTEDTAVYYCTTELDILLWFTSFDYWGQGTLVTVSS
VL: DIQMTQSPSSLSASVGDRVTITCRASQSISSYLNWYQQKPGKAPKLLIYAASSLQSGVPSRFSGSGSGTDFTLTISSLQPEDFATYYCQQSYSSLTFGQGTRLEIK
notes: Same variable regions as Antibody 38
binding result [6]: no binding (tested: 100 µg/ml C4BP (C4BP-Protein S complex))
Kd [7]: 0.382 nM
koff [7]: 8.32e-05 s⁻¹
kon [7]: 218000 M⁻¹ s⁻¹
Kd [8]: 0.672 nM
koff [8]: 0.000119 s⁻¹
kon [8]: 177000 M⁻¹ s⁻¹

B3: Antibody 42 (antibody, V domains shown)
VH: QVQLVQSGSEVKKPGASVKVSCKASGYTFTNYYIHWVRQAPGQGLEWMGIITPSGGTTSYAQKFQGRVTMTRDTSTNTVYMGLSSLRSEDTAMYYCARAGVQLDRRGWFDPWGQGTLVTVSS
VL: SYELTQPPSVSVSPGQTASITCSGDKLGDKYVFWYQQKPGQSPVLVIYQDSKRPSGIPERFSGSNSGNTATLTISGTQTMDEADYYCQAWDSSTVGFGGGTKLAVL
notes: as for B1
Binding to Protein S in CaCl2 (OD) [1]: 0.67 OD
IC50 APC [2]: 215 nM
binding result [3]: no binding
Binding to heavy chain (OD) [4]: 0.11 OD
Binding to Protein S in EDTA (OD) [5]: 0.53 OD

B4: Antibody 35 (antibody, V domains shown)
VH: QLQLQESGPGLVKPSETLSLTCTVSGGSITNSNYYWGWIRQPPGKGLEWIGSVYYSGTTYYNPSLKSRVTISVDPSKNQFSLKLSSVTAADTAVYYCVRESESYYYYGSDVWGQGTTVTVSS
VL: DIQMTQSPSSLSASVGDRVTITCRASQGINNYLAWFQQKPGKAPKSLIYAASSLQSGVPSKFSGSGSGTDFTLTISSLQPEDFATYYCQQYNSYPRTFGQGTKVEIK
notes: as for B1
Binding to Protein S in CaCl2 (OD) [1]: 0.96 OD
IC50 APC [2]: 371 nM
binding result [3]: no binding
Binding to heavy chain (OD) [4]: 0.08 OD
Binding to Protein S in EDTA (OD) [5]: 0.11 OD

B5: Antibody 29 (antibody, V domains shown)
VH: QLQLQESGPGLVKPSETLSLTCTVSGGSITNSNYYWGWIRQPPGKGLEWIGSVYYSGTTYYNPSLKSRVTISVDPSKNQFSLKLSSVTAADTAVYYCVRESESYYYYGSDVWGQGTTVTVSS
VL: DIQMTQSPSSLSASVGDRVTITCRASQGINNYLAWFQQKPGKAPKSLIYAASSLQSGVPSKFSGSGSGTDFTLTISSLQPEDFATYYCQQYNSYPRTFGQGTKVEIK
notes: Same variable regions as Antibody 35
binding result [6]: no binding (tested: 100 µg/ml C4BP (C4BP-Protein S complex))
Kd [7]: 21.1 nM
koff [7]: 0.00173 s⁻¹
kon [7]: 81900 M⁻¹ s⁻¹
Kd [8]: 20 nM
koff [8]: 0.00177 s⁻¹
kon [8]: 88200 M⁻¹ s⁻¹

B6: Antibody 30 (antibody, V domains shown)
VH: EVQLVESGGGLVKPGGSLRLSCAASGFTFSSYNMNWVRQAPGRGLDWVSSISSSSSYIYYADSVKGRFTISRDNAKNSLYLQMNTLRAEDTAVYYCARDEEWELLTGFDYWGQGTLVTVSS
VL: DIQMTQSPSSLSASVGDRVTITCRASQGINNYLAWFQQKPGKAPKSLIYAASNLQSGVPLKFSGSGSGTDFTLTISSLQPEDFATYYCQQYNSYPITFGQGTRLEIK
notes: Same variable regions as Antibody 36
binding result [6]: no binding (tested: 100 µg/ml C4BP (C4BP-Protein S complex))
Kd [7]: 11.5 nM
koff [7]: 0.000279 s⁻¹
kon [7]: 24200 M⁻¹ s⁻¹
Kd [8]: 20.9 nM
koff [8]: 0.00073 s⁻¹
kon [8]: 35000 M⁻¹ s⁻¹

B7: Antibody 36 (antibody, V domains shown)
VH: EVQLVESGGGLVKPGGSLRLSCAASGFTFSSYNMNWVRQAPGRGLDWVSSISSSSSYIYYADSVKGRFTISRDNAKNSLYLQMNTLRAEDTAVYYCARDEEWELLTGFDYWGQGTLVTVSS
VL: DIQMTQSPSSLSASVGDRVTITCRASQGINNYLAWFQQKPGKAPKSLIYAASNLQSGVPLKFSGSGSGTDFTLTISSLQPEDFATYYCQQYNSYPITFGQGTRLEIK
notes: as for B1
Binding to Protein S in CaCl2 (OD) [1]: 0.6 OD
IC50 APC [2]: 15.3 nM
IC50 TFPI [2]: 6.05 nM
binding result [3]: no binding
Binding to heavy chain (OD) [4]: 0.08 OD
Binding to Protein S in EDTA (OD) [5]: 0.03 OD

B8: Antibody 40 (antibody, V domains shown)
VH: EVQLVESGGGLVQPGGSLRLSCAASGFTFSSYSMNWVRQAPGKGLEWVAYISSSTRTIFYADSVKGRFTISRDNAKNSLYLQMNSLRDEDTAFYYCARERSAFDYWGQGTLVTVSS
VL: SYVLTQPPSVSVAPGQTARITCGGDNIGGKSVHWYQQKPGQAPVMVVYDDSDRPSGIPERFAGSNSGNTATLAISRVEAGDEADYYCQVWEITSDHPAFGGGTRLTVL
notes: as for B1
Binding to Protein S in CaCl2 (OD) [1]: 0.51 OD
IC50 APC [2]: 11.9 nM
binding result [3]: no binding
Binding to heavy chain (OD) [4]: 0.11 OD
Binding to Protein S in EDTA (OD) [5]: 0.11 OD
